{
  "source": "the supplement of paper PMC6757056",
  "parents": {"B1": {"name": "library; a variant is named by its letters at N, in order (parent)", "chain": "GCUGUCACCGGUGCUUGGUACGUUAUAUUCAGCCGGUCUGAUGAGUCUNNNNNNAGACGAAACAGC"}},
  "key": {"(6R,S)-folinic acid [1]": {"variants_of": "B1", "assay": "FACS-Seq fitted mean relative fluorescence mCherry/BFP without ligand (log10 relative fluorescence); HEK293T overexpressing SLC46A1; higher = higher reporter protein expression", "details": "without (6R,S)-folinic acid; ligand present: no", "in_short": "(§1)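 The ribozyme switch sat in an mCherry reporter, delivered by lentivirus into HEK293T libraries along with an EF1α-BFP marker. Enriched cells were incubated 48 h with or without ligand, sorted into 6 bins by mCherry/BFP, and bin genomic DNA was PCR-amplified, barcoded and MiSeq-sequenced. Fluorescence equals the fitted normal mean of the bin counts after normalization. Those log10(mCherry/BFP) means were scaled to five spiked-in control ribozymes.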"}, "(6R,S)-folinic acid [2]": {"variants_of": "B1", "assay": "normalized RNA/DNA level without ligand (relative to sTRSVctl = 100) (log10 (% of sTRSVctl)); HEK293T overexpressing SLC46A1; higher = less ribozyme self-cleavage, higher mRNA level", "details": "without (6R,S)-folinic acid; ligand present: no", "in_short": "(§2)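 Library plasmids encoding reporter-linked ribozyme switches (mCherry, or eGFP for some folinic acid experiments) were transfected into HEK293T at 4 µg per 6-well well. Ligand, when used, was added 1 h before transfection. Total RNA was extracted with EDTA 72 h later, then reverse-transcribed, amplified, barcoded and sequenced. RNA level was RNA reads over DNA reads, divided by a spiked-in non-cleaving control (or the top 25 sequences), ×100, log10; only sequences with ≥100 DNA reads were kept.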"}, "(6R,S)-folinic acid [3]": {"variants_of": "B1", "assay": "FACS-Seq fitted mean relative fluorescence mCherry/BFP with ligand (log10 relative fluorescence); HEK293T overexpressing SLC46A1; ligand concentration (+) FACS-Seq: 6 mM; higher = higher reporter protein expression", "details": "with (6R,S)-folinic acid; ligand present: yes", "in_short": "as §1"}, "(6R,S)-folinic acid [4]": {"variants_of": "B1", "assay": "normalized RNA/DNA level with ligand (relative to sTRSVctl = 100) (log10 (% of sTRSVctl)); HEK293T overexpressing SLC46A1; ligand concentration (+) RNA-Seq: 6 mM; higher = less ribozyme self-cleavage, higher mRNA level", "details": "with (6R,S)-folinic acid; ligand present: yes", "in_short": "as §2"}},
  "note": "± gives the standard deviation of the averaged measurements.",
  "data": [
    {"variant": "GCUGUCACCGGUGCUUGGUACGUUAUAUUCAGCCGGUCUGAUGAGUCUGCUCUGAGACGAAACAGC", "note": "[GCUCUG]", "values": [
      {"measurement": "FACS-Seq fitted mean (log10)", "setting": "(6R,S)-folinic acid [1]", "result": "0.433 ± 0.072"},
      {"measurement": "normalized RNA/DNA level without ligand (log10)", "setting": "(6R,S)-folinic acid [2]", "result": "1.99 ± 0.024"},
      {"measurement": "FACS-Seq fitted mean (log10)", "setting": "(6R,S)-folinic acid [3]", "result": "0.646 ± 0.038"},
      {"measurement": "normalized RNA/DNA level with ligand (log10)", "setting": "(6R,S)-folinic acid [4]", "result": "2.03 ± 0.037"}
    ]},
    {"variant": "GCUGUCACCGGUGCUUGGUACGUUAUAUUCAGCCGGUCUGAUGAGUCUGCUGAAAGACGAAACAGC", "note": "[GCUGAA]", "values": [
      {"measurement": "FACS-Seq fitted mean (log10)", "setting": "(6R,S)-folinic acid [1]", "result": "-0.084 ± 0.057"},
      {"measurement": "normalized RNA/DNA level without ligand (log10)", "setting": "(6R,S)-folinic acid [2]", "result": "2.021 ± 0.02"},
      {"measurement": "FACS-Seq fitted mean (log10)", "setting": "(6R,S)-folinic acid [3]", "result": "-0.25 ± 0.14"},
      {"measurement": "normalized RNA/DNA level with ligand (log10)", "setting": "(6R,S)-folinic acid [4]", "result": "2.03 ± 0.028"}
    ]},
    {"variant": "GCUGUCACCGGUGCUUGGUACGUUAUAUUCAGCCGGUCUGAUGAGUCUACUGAAAGACGAAACAGC", "note": "[ACUGAA]", "values": [
      {"measurement": "FACS-Seq fitted mean (log10)", "setting": "(6R,S)-folinic acid [1]", "result": "0.265 ± 0.035"},
      {"measurement": "normalized RNA/DNA level without ligand (log10)", "setting": "(6R,S)-folinic acid [2]", "result": "1.953 ± 0.0034"},
      {"measurement": "FACS-Seq fitted mean (log10)", "setting": "(6R,S)-folinic acid [3]", "result": "0.375 ± 0.18"},
      {"measurement": "normalized RNA/DNA level with ligand (log10)", "setting": "(6R,S)-folinic acid [4]", "result": "1.981 ± 0.0063"}
    ]},
    {"variant": "GCUGUCACCGGUGCUUGGUACGUUAUAUUCAGCCGGUCUGAUGAGUCUACUGAGAGACGAAACAGC", "note": "[ACUGAG]", "values": [
      {"measurement": "FACS-Seq fitted mean (log10)", "setting": "(6R,S)-folinic acid [1]", "result": "0.198 ± 0.044"},
      {"measurement": "normalized RNA/DNA level without ligand (log10)", "setting": "(6R,S)-folinic acid [2]", "result": "1.7978 ± 0.0006"},
      {"measurement": "FACS-Seq fitted mean (log10)", "setting": "(6R,S)-folinic acid [3]", "result": "0.446 ± 0.082"},
      {"measurement": "normalized RNA/DNA level with ligand (log10)", "setting": "(6R,S)-folinic acid [4]", "result": "2 ± 0.023"}
    ]},
    {"variant": "GCUGUCACCGGUGCUUGGUACGUUAUAUUCAGCCGGUCUGAUGAGUCUCCUGAUAGACGAAACAGC", "note": "[CCUGAU]", "values": [
      {"measurement": "FACS-Seq fitted mean (log10)", "setting": "(6R,S)-folinic acid [1]", "result": "-0.195 ± 0.23"},
      {"measurement": "normalized RNA/DNA level without ligand (log10)", "setting": "(6R,S)-folinic acid [2]", "result": "2.02 ± 0.024"},
      {"measurement": "FACS-Seq fitted mean (log10)", "setting": "(6R,S)-folinic acid [3]", "result": "-0.196 ± 0.058"},
      {"measurement": "normalized RNA/DNA level with ligand (log10)", "setting": "(6R,S)-folinic acid [4]", "result": "2.05 ± 0.028"}
    ]},
    {"variant": "GCUGUCACCGGUGCUUGGUACGUUAUAUUCAGCCGGUCUGAUGAGUCUGCUGAUAGACGAAACAGC", "note": "[GCUGAU]", "values": [
      {"measurement": "FACS-Seq fitted mean (log10)", "setting": "(6R,S)-folinic acid [1]", "result": "0.277 ± 0.044"},
      {"measurement": "normalized RNA/DNA level without ligand (log10)", "setting": "(6R,S)-folinic acid [2]", "result": "2.036 ± 0.0025"},
      {"measurement": "FACS-Seq fitted mean (log10)", "setting": "(6R,S)-folinic acid [3]", "result": "0.23 ± 0.0065"},
      {"measurement": "normalized RNA/DNA level with ligand (log10)", "setting": "(6R,S)-folinic acid [4]", "result": "2.014 ± 0.019"}
    ]},
    {"variant": "GCUGUCACCGGUGCUUGGUACGUUAUAUUCAGCCGGUCUGAUGAGUCUGCUGCCAGACGAAACAGC", "note": "[GCUGCC]", "values": [
      {"measurement": "FACS-Seq fitted mean (log10)", "setting": "(6R,S)-folinic acid [1]", "result": "0.382 ± 0.084"},
      {"measurement": "normalized RNA/DNA level without ligand (log10)", "setting": "(6R,S)-folinic acid [2]", "result": "2.08 ± 0.0024"},
      {"measurement": "FACS-Seq fitted mean (log10)", "setting": "(6R,S)-folinic acid [3]", "result": "0.484 ± 0.32"},
      {"measurement": "normalized RNA/DNA level with ligand (log10)", "setting": "(6R,S)-folinic acid [4]", "result": "2.042 ± 0.0033"}
    ]},
    {"variant": "GCUGUCACCGGUGCUUGGUACGUUAUAUUCAGCCGGUCUGAUGAGUCUCCUGCUAGACGAAACAGC", "note": "[CCUGCU]", "values": [
      {"measurement": "FACS-Seq fitted mean (log10)", "setting": "(6R,S)-folinic acid [1]", "result": "-0.139 ± 0.054"},
      {"measurement": "normalized RNA/DNA level without ligand (log10)", "setting": "(6R,S)-folinic acid [2]", "result": "2.06 ± 0.013"},
      {"measurement": "FACS-Seq fitted mean (log10)", "setting": "(6R,S)-folinic acid [3]", "result": "-0.135 ± 0.0061"},
      {"measurement": "normalized RNA/DNA level with ligand (log10)", "setting": "(6R,S)-folinic acid [4]", "result": "2.08 ± 0.04"}
    ]},
    {"variant": "GCUGUCACCGGUGCUUGGUACGUUAUAUUCAGCCGGUCUGAUGAGUCUUCUGGAAGACGAAACAGC", "note": "[UCUGGA]", "values": [
      {"measurement": "FACS-Seq fitted mean (log10)", "setting": "(6R,S)-folinic acid [1]", "result": "0.542 ± 0.018"},
      {"measurement": "normalized RNA/DNA level without ligand (log10)", "setting": "(6R,S)-folinic acid [2]", "result": "1.99 ± 0.012"},
      {"measurement": "FACS-Seq fitted mean (log10)", "setting": "(6R,S)-folinic acid [3]", "result": "-0.0265 ± 0.23"},
      {"measurement": "normalized RNA/DNA level with ligand (log10)", "setting": "(6R,S)-folinic acid [4]", "result": "2.05 ± 0.027"}
    ]},
    {"variant": "GCUGUCACCGGUGCUUGGUACGUUAUAUUCAGCCGGUCUGAUGAGUCUUCUGGGAGACGAAACAGC", "note": "[UCUGGG]", "values": [
      {"measurement": "FACS-Seq fitted mean (log10)", "setting": "(6R,S)-folinic acid [1]", "result": "0.501 ± 0.098"},
      {"measurement": "normalized RNA/DNA level without ligand (log10)", "setting": "(6R,S)-folinic acid [2]", "result": "1.836 ± 0.012"},
      {"measurement": "FACS-Seq fitted mean (log10)", "setting": "(6R,S)-folinic acid [3]", "result": "0.524 ± 0.01"},
      {"measurement": "normalized RNA/DNA level with ligand (log10)", "setting": "(6R,S)-folinic acid [4]", "result": "1.98 ± 0.027"}
    ]},
    {"variant": "GCUGUCACCGGUGCUUGGUACGUUAUAUUCAGCCGGUCUGAUGAGUCUACUGGGAGACGAAACAGC", "note": "[ACUGGG]", "values": [
      {"measurement": "FACS-Seq fitted mean (log10)", "setting": "(6R,S)-folinic acid [1]", "result": "-0.0324 ± 0.033"},
      {"measurement": "normalized RNA/DNA level without ligand (log10)", "setting": "(6R,S)-folinic acid [2]", "result": "1.841 ± 0.016"},
      {"measurement": "FACS-Seq fitted mean (log10)", "setting": "(6R,S)-folinic acid [3]", "result": "0.115 ± 0.1"},
      {"measurement": "normalized RNA/DNA level with ligand (log10)", "setting": "(6R,S)-folinic acid [4]", "result": "2.0256 ± 0.0015"}
    ]}
  ]
}
